# Experimental data published in IntAct's records for PubMed 17693255.
# B1: Hamartin (Homo sapiens), Q92574 (parent)
# chain: MAQQANVGELLAMLDSPMLGVRDDVTAVFKENLNSDRGPMLVNTLVDYYLETSSQPALHILTTLQEPHDKHLLDRINEYVGKAATRLSILSLLGHVIRLQPSWKHKLSQAPLLPSLLKCLKMDTDVVVLTTGVLVLITMLPMIPQSGKQHLLDFFDIFGRLSSWCLKKPGHVAEVYLVHLHASVYALFHRLYGMYPCNFVSFLRSHYSMKENLETFEEVVKPMMEHVRIHPELVTGSKDHELDPRRWKRLETHDVVIECAKISLDPTEASYEDGYSVSHQISARFPHRSADVTTSPYADTQNSYGCATSTPYSTSRLMLLNMPGQLPQTLSSPSTRLITEPPQATLWSPSMVCGMTTPPTSPGNVPPDLSHPYSKVFGTTAGGKGTPLGTPATSPPPAPLCHSDDYVHISLPQATVTPPRKEERMDSARPCLHRQHHLLNDRGSEEPPGSKGSVTLSDLPGFLGDLASEEDSIEKDKEEAAISRELSEITTAEAEPVVPRGGFDSPFYRDSLPGSQRKTHSAASSSQGASVNPEPLHSSLDKLGPDTPKQAFTPIDLPCGSADESPAGDRECQTSLETSIFTPSPCKIPPPTRVGFGSGQPPPYDHLFEVALPKTAHHFVIRKTEELLKKAKGNTEEDGVPSTSPMEVLDRLIQQGADAHSKELNKLPLPSKSVDWTHFGGSPPSDEIRTLRDQLLLLHNQLLYERFKRQQHALRNRRLLRKVIKAAALEEHNAAMKDQLKLQEKDIQMWKVSLQKEQARYNQLQEQRDTMVTKLHSQIRQLQHDREEFYNQSQELQTKLEDCRNMIAELRIELKKANNKVCHTELLLSQVSQKLSNSESVQQQMEFLNRQLLVLGEVNELYLEQLQNKHSDTTKEVEMMKAAYRKELEKNRSHVLQQTQRLDTSQKRILELESHLAKKDHLLLEQKKYLEDVKLQARGQLQAAESRYEAQKRITQVFELEILDLYGRLEKDGLLKKLEEEKAEAAEAAEERLDCCNDGCSDSMVGHNEEASGHNGETKTPRPSSARGSSGSRGGGGSSSSSSELSTPEKPPHQRAGPFSSRWETTMGEASASIPTTVGSLPSSKSFLGMKARELFRNKSESQCDEDGMTSSLSESLKTELGKDLGVEAKIPLNLDGPHPSPPTPDSVGQLHIMDYNETHHEHS
# Variants of: B1
# Details: with tsc2_human TSC2, P49815
# tsc2_human TSC2, P49815, sequence (P49815 whole entry): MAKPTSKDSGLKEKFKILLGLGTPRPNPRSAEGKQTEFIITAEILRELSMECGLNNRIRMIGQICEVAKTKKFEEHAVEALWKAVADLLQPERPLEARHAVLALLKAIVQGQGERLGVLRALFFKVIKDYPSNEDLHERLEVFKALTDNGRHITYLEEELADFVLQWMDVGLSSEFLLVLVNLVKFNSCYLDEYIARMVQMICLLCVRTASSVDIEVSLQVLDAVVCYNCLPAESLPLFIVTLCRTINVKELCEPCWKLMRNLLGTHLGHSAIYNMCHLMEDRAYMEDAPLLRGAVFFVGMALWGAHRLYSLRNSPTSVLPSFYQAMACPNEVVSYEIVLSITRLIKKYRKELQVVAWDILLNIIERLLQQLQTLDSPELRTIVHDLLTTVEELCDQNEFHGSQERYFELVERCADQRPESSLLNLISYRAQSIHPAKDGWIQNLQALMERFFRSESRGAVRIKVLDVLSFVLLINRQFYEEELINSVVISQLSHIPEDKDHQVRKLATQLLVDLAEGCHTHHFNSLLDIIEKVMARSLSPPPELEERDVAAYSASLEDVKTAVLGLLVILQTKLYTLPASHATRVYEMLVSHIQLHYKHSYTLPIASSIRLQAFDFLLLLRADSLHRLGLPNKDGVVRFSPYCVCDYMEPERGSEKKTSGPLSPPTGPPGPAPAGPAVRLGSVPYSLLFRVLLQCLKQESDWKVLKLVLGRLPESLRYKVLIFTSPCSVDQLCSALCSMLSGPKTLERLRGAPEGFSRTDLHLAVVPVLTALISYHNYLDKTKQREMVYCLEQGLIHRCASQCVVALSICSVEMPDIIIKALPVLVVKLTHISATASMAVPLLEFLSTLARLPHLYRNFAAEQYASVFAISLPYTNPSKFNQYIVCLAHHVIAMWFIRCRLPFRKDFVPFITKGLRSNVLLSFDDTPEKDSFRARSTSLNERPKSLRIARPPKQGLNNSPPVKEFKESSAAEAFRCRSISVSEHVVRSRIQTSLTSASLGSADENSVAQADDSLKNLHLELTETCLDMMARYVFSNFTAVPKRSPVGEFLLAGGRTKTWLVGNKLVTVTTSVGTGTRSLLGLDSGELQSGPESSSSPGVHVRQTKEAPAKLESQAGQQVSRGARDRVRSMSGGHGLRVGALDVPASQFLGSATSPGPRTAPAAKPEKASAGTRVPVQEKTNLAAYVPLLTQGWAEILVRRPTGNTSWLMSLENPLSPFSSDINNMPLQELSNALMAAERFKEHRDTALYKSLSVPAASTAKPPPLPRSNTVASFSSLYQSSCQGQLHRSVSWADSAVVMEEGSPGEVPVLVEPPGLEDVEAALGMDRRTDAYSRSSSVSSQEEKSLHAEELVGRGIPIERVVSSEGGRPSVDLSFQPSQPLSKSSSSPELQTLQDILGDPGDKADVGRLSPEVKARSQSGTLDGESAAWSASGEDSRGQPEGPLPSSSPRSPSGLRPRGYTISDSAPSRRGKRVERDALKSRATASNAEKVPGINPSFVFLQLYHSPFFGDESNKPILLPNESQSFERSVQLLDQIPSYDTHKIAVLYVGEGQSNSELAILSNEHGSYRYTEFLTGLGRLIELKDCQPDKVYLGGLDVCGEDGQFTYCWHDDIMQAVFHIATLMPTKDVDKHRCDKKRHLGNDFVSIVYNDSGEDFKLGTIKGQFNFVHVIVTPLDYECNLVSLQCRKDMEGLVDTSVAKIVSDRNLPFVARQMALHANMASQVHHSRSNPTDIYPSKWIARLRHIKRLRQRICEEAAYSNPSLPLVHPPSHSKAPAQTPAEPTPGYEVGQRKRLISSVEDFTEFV
row,effect of a mutation on the interaction,Variant
1,decreasing interaction,S487D;S511D
